# According to publication PMC9859754, “Multivalent interactions facilitate motor-dependent protein accumulation at growing microtubule plus-ends” (Nature Cell Biology, 2022):
# T1: Tea2-Alexa647 (S. pombe, UniProt Q1MTQ1 1-628, Alexa Fluor 647 (NHS ester labelling, sites not stated))
# T1 construct: Tea2 (kinesin-7 homologue), Schizosaccharomyces pombe, full length; also called Tea2-647; source: bacterially expressed, purified (Talon resin, eluted with 3C protease, SEC), labelled with Alexa Fluor 647 NHS ester; not shown: Z-tag, N-terminal, cleaved
# T1 sequence (looked up): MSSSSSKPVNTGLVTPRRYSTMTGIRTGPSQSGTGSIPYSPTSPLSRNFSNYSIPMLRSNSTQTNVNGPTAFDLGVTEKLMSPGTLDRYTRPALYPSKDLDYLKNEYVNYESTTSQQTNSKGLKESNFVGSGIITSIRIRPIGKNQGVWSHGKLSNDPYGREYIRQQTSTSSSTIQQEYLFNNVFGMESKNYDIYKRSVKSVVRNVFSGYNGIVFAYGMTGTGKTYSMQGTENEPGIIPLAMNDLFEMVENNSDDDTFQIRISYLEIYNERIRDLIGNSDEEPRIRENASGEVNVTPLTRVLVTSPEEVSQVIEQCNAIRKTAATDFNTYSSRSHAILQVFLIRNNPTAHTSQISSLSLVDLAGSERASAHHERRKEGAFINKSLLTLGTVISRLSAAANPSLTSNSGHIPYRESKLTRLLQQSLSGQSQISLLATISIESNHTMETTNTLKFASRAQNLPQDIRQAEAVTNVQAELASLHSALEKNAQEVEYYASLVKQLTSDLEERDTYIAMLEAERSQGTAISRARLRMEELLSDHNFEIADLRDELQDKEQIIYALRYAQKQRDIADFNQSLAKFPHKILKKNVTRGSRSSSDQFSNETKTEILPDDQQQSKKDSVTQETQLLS
# T2: Full-length S. pombe Mal3, unlabelled (S. pombe, UniProt Q10113 1-308)
# T2 construct: Mal3 (EB homologue), Schizosaccharomyces pombe, full length; Scaffold (200 nM) in the scaffold-client assay; also the Mal3 of the cryo-ET samples; also called FL-Mal3; FLMal3; source: E. coli ER2566, purified (Talon resin, eluted with 3C protease, SEC); not shown: His8, N-terminal, cleaved
# T2 sequence (looked up): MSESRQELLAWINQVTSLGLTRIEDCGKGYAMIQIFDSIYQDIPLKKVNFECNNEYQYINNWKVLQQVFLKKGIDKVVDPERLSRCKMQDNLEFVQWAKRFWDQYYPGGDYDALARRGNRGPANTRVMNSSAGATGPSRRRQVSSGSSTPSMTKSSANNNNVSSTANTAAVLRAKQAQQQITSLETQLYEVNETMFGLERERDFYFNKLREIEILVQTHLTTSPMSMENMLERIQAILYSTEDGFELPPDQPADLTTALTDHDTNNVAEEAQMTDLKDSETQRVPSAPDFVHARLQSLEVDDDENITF
# B1: Full-length Mal3:GFP (natural protein, S. pombe, UniProt Q10113 1-308, looked up)
# chain: T2 sequence (looked up)
# notes: Mal3 (EB homologue), Schizosaccharomyces pombe, full length; source: E. coli ER2566, purified (Talon resin, eluted with 3C protease, SEC); not shown: His8, N-terminal, cleaved
# B2: Mal3-Alexa488 (natural protein, S. pombe, UniProt Q10113 1-308, looked up)
# chain: T2 sequence (looked up)
# modifications: Alexa Fluor 488 (TFP ester labelling, sites not stated)
# notes: Mal3 (EB homologue), Schizosaccharomyces pombe, full length; source: E. coli ER2566, purified (Talon resin, eluted with 3C protease, SEC), labelled with Alexa Fluor 488 TFP ester; not shown: His8, N-terminal, cleaved
# Columns and labels:
# Conditions in all cases: both partners purified
# [1] = molecular target: T1, Tea2-Alexa647; experiment: scaffold-client recruitment into condensates (spinning disc confocal microscopy); scaffold condensates of 200 nM FL Mal3, 215 nM Tip1 (each tagged with 2 nM FL Mal3:mCherry) or Tea2-Alexa647, with 2 nM Mal3:GFP construct as client; 1x MRB80, 50 mM KCl, 10% PEG6k, 2 mM ATP, 1 mM GTP, 2 mM dithiothreitol, 0.5 mM β-mercaptoethanol; imaged about 30 min after mixing
# [2] = molecular target: T2, Full-length S. pombe Mal3, unlabelled; experiment: as above
# [3] = molecular target: T1, Tea2-Alexa647; experiment: TIRF microscopy of purified fluorescent proteins on microtubules; plus-end-tracking reconstitution without PEG: 200 nM Mal3 or Mal3 construct, 20 nM Tea2, 150 nM Tip1 together on dynamic microtubules grown from surface-bound GMPCPP seeds; MRB80, 50 mM KCl, 14.5 µM tubulin, 0.5 µM rhodamine tubulin, 1 mM GTP, 2 mM ATP, 0.1% methylcellulose
binder,measurement,setting,value
B1,binding result,[1],binds
same,binding result,[2],binds
B2,binding result,[3],binds
